Measured values from the nanobody polyreactivity screen of Harvey et al. (2022).

Assay: yeast display, Sf9 membrane polyspecificity reagent, FACS + sequencing; frameworks hold sequencing errors
Method in brief: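 Synthetic nanobody libraries on Saccharomyces cerevisiae BJ5465 were galactose-induced for 36–48 hours, stained 1 hour at 4 °C with 10% biotinylated, detergent-solubilized Sf9 membrane reagent and enriched on streptavidin microbeads. FACS then separated cells into low and high (top ~1%) gates by anti-HA (expression) and streptavidin (reagent binding) fluorescence. Genes were colony-PCR amplified, MiSeq 2 × 250 sequenced and CDR-length filtered. A clone's polyreactivity label is that of its gate of origin.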

Sequence	polyreactivity (PSR sort gate)
QVQLVESGGGLVQAGGILRLNCAASGFIFRRYAMGWSRQAPGKERELVAAISSGGTSTYYADSVKGRFTISRDNAKYTVYLQKNSLKPEDTAVSYCNVDTDPYYWGGDYYWGQGTQVTVSS	high polyreactivity
QVQLVESGGGLVQAGGILRLSCAAPGSTFRKCAMGWYRQAPGKERELVAAISRGGTSTYYADSVKGRFTISRDNAKNTVYLQMNSLKPEDTAVYSCRYFRYSYGTKYDYWGQGTQVTVSS	high polyreactivity
QVQLVESGGGLVQAGGILRLSCAASGFIFAKYAMVWYRQAPGKERELVAAITSGGSTNYADSVKGRFTISRDNAKNTVYLQMNSLKPEDTAVYYCNRGFDWWYRYRHYDYWGQGTQVTVSS	low polyreactivity
QVQLVESGGGLVQAGGILRLSCAASGFIFVDYSMGWYREAPAKESQLVAAISGRDGSTYYADSVKGRFTISRDNAKNTVYLQMNSLKPEDTAVYYCAADRIHSGTLYDYDYWGQGTQVTESS	low polyreactivity
QVQLVESGGGLVQAGGILRLSCAASGFIFVDYVMGWSRQAPGKERELVAAINRNGGRPYYADSVKGRFTISRDNEKNTVYLQMNRLKPEDTAVYYCAAVYRSDRYHWYYYWGQGTQVTVSS	high polyreactivity
QVQLVESGGGLVQAGGILRLSCAASGIIFQQYAMGWYRQAPGKERELVAAITYSGDGTYYADSEKGRFTISRDNAKNTVYLQMNSLKPEDTAVYYCNTDRKSRWARYEYWGQGTQVTVSS	low polyreactivity
QVQLVESGGGLVQAGGILRLSCAASGLTFSRYDMGWYRPEPGKERELVAAITWSGSSTYYADSVKGRFTLSRDNAKNTVYLQMNSLKRVDTAVYYCAARYGYSRGPYYRSYYWGQGTQVTVSS	high polyreactivity
QVQLVESGGGLVQAGGILRLSCAASGNIFPLYAMGWYRQAPGKERELVAAITWSTTSTYYADSVKGRFTISRDNAKNTVYLQMNSLKPEDTAVYYCAAGAYRRNKSDYYYWGQGTQVTVSS	low polyreactivity
QVQLVESGGGLVQAGGILRLSCAASGRIFRVNTMGWYRKAPGKERELVAAIRSSGTRTYYADSVKGRFTISRDNAKNTVYLQMNSVKPEDTAVYYCAAYAWRYQAWEFGYWGQGTQVTVSS	high polyreactivity
QVQLVESGGGLVQAGGILRLSCAASGRIFYYNAMGGYRQAPGKERELVAAITSGGSTNYADSVKGRFTISRDNAKNTVYLQMNSLKPEDTAVYYCAADYYYYVAGVHYDYWGQGTQVTVSS	low polyreactivity
QVQLVESGGGLVQAGGILRLSCAASGRIIRSYAMGWYRHAPGKERELVAAITSGGSTNYADSVKGRFTISRDNANNTVYLQMNSLKPEDTAVYYCAARWPWYGKLRYYYWGQGTQVTVSS	high polyreactivity
QVQLVESGGGLVQAGGILRLSCAASGRILDGYAMGWYRQAPGKERELVAAISSRGGRTYYADSVKGRFTISRDNAKNTVYLQMNSLKPEDTAVYYCAATRYGTYEYNYWGQGTQVTVSS	high polyreactivity
QVQLVESGGGLVQAGGILRLSCAASGRTFDSNAMGWYRQAPGKERELVAAISWSGGSTYYADSVKGRFTISRDNAKNTVYLQMNSLKPEDTAVYYCNRLGRHAPATRYGYWGQGTQVTVSS	high polyreactivity
QVQLVESGGGLVQAGGILRLSCAASGRTFGLYAMGWYRQAPGKERELVAAISWGGGRTYYADSVKGRFTISRDNAKNTVDLQMNSVKPEYTAVYYCNAVYSPRYYVGGYDYWGQGTHVTVSS	high polyreactivity
QVQLVESGGGLVQAGGILRLSCAASGRTFGRNAMGWYRQAPGKERELVARITSGGSTSYADSVKGRFTISRDNAKNTVYLQMNSLKPEDTAVYYCAKGSYGVAYFTHTARYYGGYEYWGQGTQVTVSS	high polyreactivity
QVQLVESGGGLVQAGGILRLSCAASGRTFMYYAMGWYRQAPGKDMELVAAIRRGSSTYYADSVKGRFTISRDNAKYSVYLQMNSLKPEDTAVYYCAARGRYRIGQGRYGKRYDYWGHGTQVTVSS	high polyreactivity
QVQLVESGGGLVQAGGILRLSCAASGRTIYYYAMGRYRQAPRKERELVASISWSGGSTYYADSVKGRFTISRDNAKNTVYLQMNSLKPEDTAVSYCNAQYHTYRWLYAVYLSGDYWGQGTQVTVSS	low polyreactivity
QVQLVESGGGLVQAGGILRLSCAASGSIFAGYAMGWYRQAPGKERELVAVITWRTDITYADSVKGRFTISRDNAKNTDYLHMNSLKPDDTAVYYCAADSDSTTRLFGDEYWGQGTQVTVSS	low polyreactivity
QVQLVESGGGLVQAGGILRLSCAASGSIFDVYAMGWYRQAPGKERELVAAISRSGGRTYYADSVKGRFTISRDNAKNRVYLQMNSLKPEDTAVYYCATYPCNWDLDYWGHGTQVTVSS	high polyreactivity
QVQLVESGGGLVQAGGILRLSCAASGSIFLYNALGWYRQAPGKERELVAAISKSGGSTYYADSVKGRFTISRDNAKNTVYLQMNSLKPEDTAVYYCAAGYGRLIRYGSDYDYWGQGTQVTVSS	low polyreactivity
QVQLVESGGGLVQAGGILRLSCAASGSIFSGNDMGWYRQAPGKERELVASINRSGGSTNYAVSVKGRFTISRDNAKNTVYLQMNSLKPEDTAVYYCARDFSFLGNASARLDYDYWGQGSQVTVSS	low polyreactivity
